Experimental data from PMC5885369, “2-Oxoglutarate regulates binding of hydroxylated hypoxia-inducible factor to prolyl hydroxylase domain 2† †Electronic supplementary information (ESI) available: Details of experimental procedures and additional experiments. See DOI: 10.1039/c8cc00387d” (Chemical Communications (Cambridge, England), 2018).
Square brackets hold non-standard residues; d marks the D form. Ends that are not written are not given here. Hyp = O=C(O)[C@@H]1C[C@@H](O)CN1

Target: T1, prolyl hydroxylase domain 2, PHD2_(181–426) (human, UniProt Q9GZT9 181-426)
T1 construct: Used apo, or with Fe(II), Zn(II), 2OG, succinate or fumarate; also called tPHD2; apo-tPHD2; source: recombinantly expressed
T1 sequence (Q9GZT9 181-426): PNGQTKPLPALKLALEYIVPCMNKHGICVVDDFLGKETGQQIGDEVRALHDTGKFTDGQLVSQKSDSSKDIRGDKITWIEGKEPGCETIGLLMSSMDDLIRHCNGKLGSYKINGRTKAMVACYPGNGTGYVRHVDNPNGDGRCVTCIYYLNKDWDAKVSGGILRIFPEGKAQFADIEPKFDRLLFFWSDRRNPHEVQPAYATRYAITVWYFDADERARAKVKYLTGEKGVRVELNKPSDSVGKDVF
Experiment: ITC; apo-tPHD2
Conditions: both partners purified

- Kd: 4.6 ± 1.4 µM
B1: hydroxylated 19-mer HIF-1α CODD peptide (peptide)
chain: DLDLEMLA[Hyp]YIPMDDDFQL
